The record followed here is publication PMC4483278.

The assay has as its target Bax (human (endogenous in U-2 OS and Sa OS)) (UniProt Q07812). The assay can be described thus: co-IP.

Chain of Ku70 (P12956 whole entry): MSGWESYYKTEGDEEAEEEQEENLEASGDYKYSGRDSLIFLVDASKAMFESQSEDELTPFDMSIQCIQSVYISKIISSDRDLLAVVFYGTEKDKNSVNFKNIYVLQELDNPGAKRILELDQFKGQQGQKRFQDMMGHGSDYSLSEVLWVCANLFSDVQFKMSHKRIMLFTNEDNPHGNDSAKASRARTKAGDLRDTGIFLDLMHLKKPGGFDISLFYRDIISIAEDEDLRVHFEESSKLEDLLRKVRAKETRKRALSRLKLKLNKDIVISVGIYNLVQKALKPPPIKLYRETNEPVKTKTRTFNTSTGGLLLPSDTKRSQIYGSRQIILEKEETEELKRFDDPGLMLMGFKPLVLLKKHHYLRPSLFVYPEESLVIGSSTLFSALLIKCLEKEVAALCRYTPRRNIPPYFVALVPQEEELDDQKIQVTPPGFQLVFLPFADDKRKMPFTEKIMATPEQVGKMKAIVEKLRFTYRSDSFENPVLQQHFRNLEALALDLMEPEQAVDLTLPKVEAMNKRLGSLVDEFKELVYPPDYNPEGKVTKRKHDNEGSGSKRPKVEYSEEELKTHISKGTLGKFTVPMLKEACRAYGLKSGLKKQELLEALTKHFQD
Chain of Bax (human (endogenous in U-2 OS and Sa OS)) (Q07812 whole entry): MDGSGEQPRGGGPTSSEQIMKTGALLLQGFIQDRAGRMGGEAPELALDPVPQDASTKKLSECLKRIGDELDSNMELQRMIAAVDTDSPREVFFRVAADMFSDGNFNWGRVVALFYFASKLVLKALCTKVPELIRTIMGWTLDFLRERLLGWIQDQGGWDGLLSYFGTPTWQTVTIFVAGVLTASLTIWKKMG

On to “Ku70 (from UniProt P12956 1-609) (natural protein)”, for which the percent of Ku70 remaining bound to Bax after sCLU depletion was under 25%.
